The term Kd denotes the equilibrium constant for the complex coming apart.

One substance from patent US20110077196A1 can be followed below.

For this assay, the target named is human insulin receptor isoform B (human) (UniProt P06213). Put plainly: competitive displacement of 125I-Tyr^A14-insulin, plate antibody capture of receptor. Background: In a radioligand displacement assay an active substance lowers the binding of a labelled ligand.
UniProt P06213, sequence (P06213 other isoform, or with tags, fused parts or gaps): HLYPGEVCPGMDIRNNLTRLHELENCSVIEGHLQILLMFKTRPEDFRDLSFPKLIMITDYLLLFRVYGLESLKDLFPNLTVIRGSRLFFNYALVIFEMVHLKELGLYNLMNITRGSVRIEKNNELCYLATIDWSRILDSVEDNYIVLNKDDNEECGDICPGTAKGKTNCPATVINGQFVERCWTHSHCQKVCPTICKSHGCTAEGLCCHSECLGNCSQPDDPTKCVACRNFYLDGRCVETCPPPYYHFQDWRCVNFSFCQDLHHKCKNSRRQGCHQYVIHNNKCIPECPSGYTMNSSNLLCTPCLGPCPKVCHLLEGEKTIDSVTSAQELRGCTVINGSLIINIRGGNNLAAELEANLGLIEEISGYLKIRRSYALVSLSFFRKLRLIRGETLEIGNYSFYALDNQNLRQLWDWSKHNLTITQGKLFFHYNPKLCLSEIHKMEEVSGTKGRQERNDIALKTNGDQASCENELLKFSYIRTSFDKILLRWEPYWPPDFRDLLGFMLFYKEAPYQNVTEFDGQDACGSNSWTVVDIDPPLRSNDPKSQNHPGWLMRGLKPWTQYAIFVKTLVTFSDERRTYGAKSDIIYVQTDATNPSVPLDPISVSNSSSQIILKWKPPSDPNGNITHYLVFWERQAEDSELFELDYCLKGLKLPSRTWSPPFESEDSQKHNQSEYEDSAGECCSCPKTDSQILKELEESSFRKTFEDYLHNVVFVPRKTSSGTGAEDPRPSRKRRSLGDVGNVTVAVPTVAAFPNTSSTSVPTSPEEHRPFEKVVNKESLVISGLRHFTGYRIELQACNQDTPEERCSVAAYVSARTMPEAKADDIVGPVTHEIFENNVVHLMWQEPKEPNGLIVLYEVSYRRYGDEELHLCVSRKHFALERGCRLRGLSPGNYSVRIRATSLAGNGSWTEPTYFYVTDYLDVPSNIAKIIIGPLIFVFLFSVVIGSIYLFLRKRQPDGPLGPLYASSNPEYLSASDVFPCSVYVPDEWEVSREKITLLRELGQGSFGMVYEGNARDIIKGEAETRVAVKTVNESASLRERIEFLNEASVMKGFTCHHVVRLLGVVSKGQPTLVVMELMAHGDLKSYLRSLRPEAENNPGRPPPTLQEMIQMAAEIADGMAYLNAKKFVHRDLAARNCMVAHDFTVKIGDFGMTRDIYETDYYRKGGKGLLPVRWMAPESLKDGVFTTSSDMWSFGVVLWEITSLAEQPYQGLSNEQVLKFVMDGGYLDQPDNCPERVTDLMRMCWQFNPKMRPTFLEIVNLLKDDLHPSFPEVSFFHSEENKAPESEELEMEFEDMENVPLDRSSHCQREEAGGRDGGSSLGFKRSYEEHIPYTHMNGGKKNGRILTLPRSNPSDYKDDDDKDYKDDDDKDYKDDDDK

Substance “XKPEE: analogue with 2-methyl-Phe^B24 (called X), Lys^B28, Pro^B29, and EE-extension (Glu^B31, Glu^B32) (ligand)” gave a Kd of 0.04 nM.
